Test system: Escherichia coli TOP10
Assay: shrunken log2 fold change of peptide-encoding DNA abundance (4.5 h post-induction vs induction); higher = less antimicrobial activity (less host growth inhibition)
Conditions: time post-induction: 4.5 h; library: site-saturation at positions 5, 18, 19, 20
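Also: peptides expressed intracellularly from a pBAD plasmid library in pooled LB shake-flask culture, induced with 0.3% L-arabinose, DNA abundance read by NGS, three biological replicates, DESeq2 with apeglm shrinkage.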

| Sequence | shrunken log2 fold change |
| --- | --- |
| RRIRIRPPRLPRPRPRPHMEPRP | -0.332 |
| RRIRMRPPRLPRPRPRPGGAPRP | 1.17 |
| RRIRHRPPRLPRPRPRPLDSPRP | -0.448 |
| RRIRARPPRLPRPRPRPYGGPRP | -0.221 |
| RRIRTRPPRLPRPRPRPYPSPRP | -0.575 |
| RRIRNRPPRLPRPRPRPPWAPRP | 0.38 |
| RRIRTRPPRLPRPRPRPQGQPRP | -0.186 |
| RRIRMRPPRLPRPRPRPPPAPRP | 2.14 |
| RRIRIRPPRLPRPRPRPQGKPRP | -0.385 |
| RRIRLRPPRLPRPRPRPGCQPRP | -0.00705 |
| RRIRARPPRLPRPRPRPWEEPRP | 0.271 |
| RRIRQRPPRLPRPRPRPKNVPRP | 0.225 |
| RRIRIRPPRLPRPRPRPCANPRP | -0.234 |
| RRIRQRPPRLPRPRPRPYGCPRP | -0.00141 |
| RRIRGRPPRLPRPRPRPTFCPRP | 0.46 |
| RRIRQRPPRLPRPRPRPPDWPRP | 0.34 |
| RRIRSRPPRLPRPRPRPNMYPRP | -0.635 |
| RRIRTRPPRLPRPRPRPVKTPRP | 0.12 |
| RRIRYRPPRLPRPRPRPVAHPRP | -0.419 |
| RRIRNRPPRLPRPRPRPLQTPRP | -0.0644 |
| RRIRARPPRLPRPRPRPLLAPRP | 0.949 |
| RRIRARPPRLPRPRPRPMQKPRP | 0.222 |
| RRIRVRPPRLPRPRPRPSYSPRP | -0.376 |

| Sequence | shrunken log2 fold change |
| --- | --- |
| RRIRQRPPRLPRPRPRPFCQPRP | 0.53 |
| RRIRERPPRLPRPRPRPWRRPRP | 0.115 |
| RRIRTRPPRLPRPRPRPTFYPRP | -0.0485 |
| RRIRSRPPRLPRPRPRPAEVPRP | -0.0708 |
| RRIRTRPPRLPRPRPRPWVVPRP | -0.0414 |
| RRIRLRPPRLPRPRPRPVEMPRP | -0.0829 |
| RRIRMRPPRLPRPRPRPCQDPRP | 0.227 |
| RRIRPRPPRLPRPRPRPCGEPRP | -0.0188 |
| RRIRHRPPRLPRPRPRPQFKPRP | -0.024 |
| RRIRCRPPRLPRPRPRPKEVPRP | -0.289 |
| RRIRIRPPRLPRPRPRPDPLPRP | -0.326 |
| RRIRWRPPRLPRPRPRPSHIPRP | -0.241 |
| RRIRVRPPRLPRPRPRPCCDPRP | -0.182 |
| RRIRVRPPRLPRPRPRPNKLPRP | -0.325 |
| RRIRWRPPRLPRPRPRPWMRPRP | 0.526 |
| RRIRYRPPRLPRPRPRPAGHPRP | -0.0387 |
| RRIRQRPPRLPRPRPRPLTAPRP | 0.0683 |
| RRIRNRPPRLPRPRPRPLKWPRP | 0.0542 |
| RRIRGRPPRLPRPRPRPDPDPRP | 0.776 |
| RRIRYRPPRLPRPRPRPQFYPRP | -1.86 |
| RRIRPRPPRLPRPRPRPNQAPRP | -0.0302 |
| RRIRWRPPRLPRPRPRPRDLPRP | 0.276 |
| RRIRRRPPRLPRPRPRPKHGPRP | -0.0664 |

| Sequence | shrunken log2 fold change |
| --- | --- |
| RRIRGRPPRLPRPRPRPNDMPRP | -0.0212 |
| RRIRTRPPRLPRPRPRPYQLPRP | -0.5 |
| RRIRRRPPRLPRPRPRPCWMPRP | 0.415 |
| RRIRGRPPRLPRPRPRPISEPRP | 0.0792 |
| RRIRCRPPRLPRPRPRPGWQPRP | 0.331 |
| RRIRRRPPRLPRPRPRPEGFPRP | 0.151 |
| RRIRNRPPRLPRPRPRPVAAPRP | 0.359 |
| RRIRRRPPRLPRPRPRPVIMPRP | 0.189 |
| RRIRHRPPRLPRPRPRPHPQPRP | -0.185 |
| RRIRGRPPRLPRPRPRPGAEPRP | 1.68 |
| RRIRDRPPRLPRPRPRPTMTPRP | 0.334 |
| RRIRTRPPRLPRPRPRPSHLPRP | -0.411 |
| RRIRHRPPRLPRPRPRPREGPRP | 0.264 |
| RRIRDRPPRLPRPRPRPPGVPRP | 0.127 |
| RRIRMRPPRLPRPRPRPLDLPRP | 0.062 |
| RRIRPRPPRLPRPRPRPADDPRP | 0.118 |
| RRIRGRPPRLPRPRPRPTWLPRP | 2.72 |
| RRIRFRPPRLPRPRPRPDITPRP | -0.0339 |
| RRIRARPPRLPRPRPRPYMIPRP | -0.494 |
| RRIRDRPPRLPRPRPRPIWAPRP | -0.0982 |
| RRIRGRPPRLPRPRPRPVLNPRP | 0.469 |
| RRIRLRPPRLPRPRPRPPPNPRP | 1.18 |
| RRIRQRPPRLPRPRPRPEWVPRP | 3.27 |

| Sequence | shrunken log2 fold change |
| --- | --- |
| RRIRNRPPRLPRPRPRPQMHPRP | -0.108 |
| RRIRNRPPRLPRPRPRPKADPRP | -0.0273 |
| RRIRVRPPRLPRPRPRPMQLPRP | -0.0252 |
| RRIRLRPPRLPRPRPRPQMDPRP | -0.16 |
| RRIRARPPRLPRPRPRPKHQPRP | 0.324 |
| RRIRVRPPRLPRPRPRPVIIPRP | -0.182 |
| RRIRTRPPRLPRPRPRPEWRPRP | 0.338 |
| RRIRNRPPRLPRPRPRPNWLPRP | 0.0494 |
| RRIRKRPPRLPRPRPRPWYFPRP | 0.0699 |
| RRIRDRPPRLPRPRPRPGDYPRP | 0.0583 |
| RRIRERPPRLPRPRPRPSFPPRP | -0.704 |
| RRIRKRPPRLPRPRPRPMHRPRP | 0.0595 |
| RRIRVRPPRLPRPRPRPMEPPRP | 0.0643 |
| RRIRSRPPRLPRPRPRPCMYPRP | -0.0328 |
| RRIRMRPPRLPRPRPRPGYEPRP | 0.247 |
| RRIRYRPPRLPRPRPRPPCPPRP | -0.141 |
| RRIRCRPPRLPRPRPRPLDCPRP | 0.0147 |
| RRIRPRPPRLPRPRPRPCAQPRP | -0.119 |
| RRIRWRPPRLPRPRPRPAINPRP | 0.185 |
| RRIRERPPRLPRPRPRPLTEPRP | -0.298 |
| RRIRFRPPRLPRPRPRPMMMPRP | -0.101 |
| RRIRGRPPRLPRPRPRPIISPRP | 0.507 |

Source: the supplement of paper PMC9112550, “Optimization of the antimicrobial peptide Bac7 by deep mutational scanning” (BMC Biology, 2022)
